B1: BMD576_PapG-DSF K172A_DAF-GPI: monovalent PapG modRNA LNP; RNA construct SEQ ID NO: 64 (nucleic acid)
chain: AGGAGGACUGGUCGAACCUGCAUAGUGAUCAUAAGGUCAGCAUAGCCACCAUGGAGACCGACACCCUCCUGCUGUGGGUGCUGUUACUGUGGGUGCCCGGUAGCACCGGCUGGAACAACAUCGUGUUCUACAGCCUGGGCAACGUGAACAGCUACCAAGGCGGCAACGUGGUGAUCACACAGAGACCUCAGUUCAUCACAAGCUGGAGACCCGGCAUCGCCACCGUGACCUGGAAUCAGUGCAACGGCCCCGAGUUCGCCGACGGCAGCUGGGCCUACUACAGAGAGUACAUCGCCUGGGUGGUGUUCCCCAAGAAGGUGAUGACCAAGAACGGCUACCCCCUGUUCAUCGAGGUGCACAACAAGGGCAGCUGGAGCGAGGAGAACACCGGCGACAGCGACAGCUACUUCUUCCUGAAGGGCUACAAGUGGGACGAGAGAGCCUUCGACGCCGGCAACCUGUGUCAGAAGCCGGGGGAGACGACCCGGCUUACAGAAAAGUUCAACGACAUCAUCUUCAAGGUGGCCCUGCCCGCCGACCUGCCCCUGGGCGACUACAGCGUGACCAUCCCCUACACAAGCGGCAUUCAGAGACACUUCGCUAGCUACCUGGGCGCUAGAUUCGCCAUCCCCUACAACGUGGCCAAGACCCUGCCUAGAGAGAACGAGAUGCUGUUCCUGUUCAAGAACAUCGGCGGCUGCAGACCUAGCGCUCAGAGCCUGGAGAUCAAGCACGGCGACCUGAGCAUCAACAGCGCCAACAACCACUACGCCGCUCAGACCCUGAGCGUGAGCUGCGACGUGCCCGCCAACAUCAGAUUCAUGCUGCUGAGAUCAACCACCCCCACCUACAGCCACGGCAAGAAGUUCAGCGUGGGCCUGGGCCACGGCUGGGACAGCAUCGUGAGCGUGAACGGCGUGGACACGGGCGAGACCACUAUGCGUUGGUACAAGGCCGGCACACAGAGCCUGACCAUCGGCAGCAGACUGUACGGCGAGAGCAGCAAGAUUCAACCGGGCGUGCUUAGUGGUUCCGCCACCCUGCUGAUGAUUCUGCCCGGCGGAAGCAGCGGCGGCGCCGACGUGCAGAUCAACAUCAGAGGCAACGUGUACAUACCCCCUUCGAGCGGAGGCGGCGGAUCGUCCGGCUCCGGGAGCAGCAGCGGCACCACACGGCUGCUGAGCGGCCACACCUGCUUCACCCUGACCGGCCUGCUGGGCACCCUGGUGACCAUGGGCCUGCUGACCUGAUGAGCUCGCUUUCUUGCUGUCCAAUUUCUAUUAAAGGUUCCUUUGUUCCCUAAGUCCAACUACUAAACUGGGGGAUAUUAUGAAGGGCCUUGAGCAUCUGGAUUCUGCCUAAUAAAAAACAUUUAUUUUCAUUGCAAAAAAAAAAAAAAAAAAAAAAAAAAAAAAAAAAAAAAAAAAAAAAAAAAAAAAAAAAAAAAAAAAAAAAAAAAAAAAAAAA
modifications: modRNA in LNP
B2: BMD562_PapG-DSF K172A_DAF-GPI: monovalent PapG modRNA LNP; RNA construct SEQ ID NO: 63 (nucleic acid)
chain: AGGAAAUAAGAGAAAGAGGAUAAGACGACUAAGGAGACAUACAGAAUAAGAGGCAGCCACCAUGGAGACCGACACCCUCCUGCUGUGGGUGCUGUUACUGUGGGUGCCCGGUAGCACCGGCUGGAACAACAUCGUGUUCUACAGCCUGGGCAACGUGAACAGCUACCAAGGCGGCAACGUGGUGAUCACACAGAGACCUCAGUUCAUCACAAGCUGGAGACCCGGCAUCGCCACCGUGACCUGGAAUCAGUGCAACGGCCCCGAGUUCGCCGACGGCAGCUGGGCCUACUACAGAGAGUACAUCGCCUGGGUGGUGUUCCCCAAGAAGGUGAUGACCAAGAACGGCUACCCCCUGUUCAUCGAGGUGCACAACAAGGGCAGCUGGAGCGAGGAGAACACCGGCGACAGCGACAGCUACUUCUUCCUGAAGGGCUACAAGUGGGACGAGAGAGCCUUCGACGCCGGCAACCUGUGUCAGAAGCCGGGGGAGACGACCCGGCUUACAGAAAAGUUCAACGACAUCAUCUUCAAGGUGGCCCUGCCCGCCGACCUGCCCCUGGGCGACUACAGCGUGACCAUCCCCUACACAAGCGGCAUUCAGAGACACUUCGCUAGCUACCUGGGCGCUAGAUUCGCCAUCCCCUACAACGUGGCCAAGACCCUGCCUAGAGAGAACGAGAUGCUGUUCCUGUUCAAGAACAUCGGCGGCUGCAGACCUAGCGCUCAGAGCCUGGAGAUCAAGCACGGCGACCUGAGCAUCAACAGCGCCAACAACCACUACGCCGCUCAGACCCUGAGCGUGAGCUGCGACGUGCCCGCCAACAUCAGAUUCAUGCUGCUGAGAUCAACCACCCCCACCUACAGCCACGGCAAGAAGUUCAGCGUGGGCCUGGGCCACGGCUGGGACAGCAUCGUGAGCGUGAACGGCGUGGACACGGGCGAGACCACUAUGCGUUGGUACAAGGCCGGCACACAGAGCCUGACCAUCGGCAGCAGACUGUACGGCGAGAGCAGCAAGAUUCAACCGGGCGUGCUUAGUGGUUCCGCCACCCUGCUGAUGAUUCUGCCCGGCGGAAGCAGCGGCGGCGCCGACGUGCAGAUCAACAUCAGAGGCAACGUGUACAUACCCCCUUCGAGCGGAGGCGGCGGAUCGUCCGGCUCCGGGAGCAGCAGCGGCACCACACGGCUGCUGAGCGGCCACACCUGCUUCACCCUGACCGGCCUGCUGGGCACCCUGGUGACCAUGGGCCUGCUGACCUGAUGAGCUCGCUUUCUUGCUGUCCAAUUUCUAUUAAAGGUUCCUUUGUUCCCUAAGUCCAACUACUAAACUGGGGGAUAUUAUGAAGGGCCUUGAGCAUCUGGAUUCUGCCUAAUAAAAAACAUUUAUUUUCAUUGCAAAAAAAAAAAAAAAAAAAAAAAAAAAAAAAAAAAAAAAAAAAAAAAAAAAAAAAAAAAAAAAAAAAAAAAAAAAAAAAAAA
modifications: modRNA in LNP

System: E. coli strain CFT073 expressing the fimbrial adhesin PapG
Assay: PapG hemagglutination inhibition (HAI) assay on sera of mice immunized with PapG modRNA LNPs
Format: in vivo
Conditions: 50 μl IM; for Step Titer GMT (HAI): weeks 0, 4, bleed week 6, GMT of individual titers; for Step Titer Pool (HAI): weeks 0, 4, bleed week 6, serum pool
Excerpt: Escherichia coli to the uroepithelium of human kidney. The PapG lectin binds to the globoside (GbO4) glycolipid, which is enriched in urinary tract tissue and consists of the tetrasacharide GalNAcβ1-3Galα1-4Galβ1-4Glc linked to ceramide. Here we present the use of a hemagglutination inhibition assay (HAI) to determine vaccine functional responses to protein subunit PapG or mRNA-expressed PapG antigens. In this assay the agglutination of human red blood cells (hRBCs) expressing GbO4 is caused by live E. coli CFT073 bacteria expressing PapG. The HAI assay measures the ability of PapG-elicited antibodies to prevent hRBC agglutination, exemplifying inhibition of the key bacterial adherence mechanism leading to clinical pyelonephritis. The assay was used to characterize the functional activity of PapG monoclonal antibodies (mAbs) raised against a PapG lectin domain subunit antigen. PapG HAI data from a mouse immunogenicity study are described that evaluated various 5 monovalent PapG modRNA LNPs and a PapG subunit comparator.
In this mouse study immunogenicity of different PapG mRNA constructs were evaluated. […]
iii. PapG Hemagglutination Inhibition Assay (HAI) 1. Preparation of Single Use Frozen E. coli CFT073 Banks Frozen bacterial stocks for use in the PapG HAI are stored at a concentration of ˜15 OD/mL. For stock preparation, take 6 ×100 μL of frozen parental strain CFT073 glycerol stock to seed six overnight cultures with ˜85 mL Luria's Broth (LB) each in 250 mL vented flasks. Flasks are shaken at 200 rpm and 37° C. overnight. On the same day, prepare 100 mL LB media with 30% glycerol and 0.4% sucrose by mixing […] 80% Glycerol with 0.8 mL 50% Sucrose in 64 mL LB and pre-chill at 4° C. After ˜16 h growth, determine the OD600 nm of each flask with the SpectraMax M5e plate reader by adding 100 μL culture to 900 μL LB (1:10 dilution). After reading the OD600, harvest cells by pelleting in a centrifuge at 4,000g, 4° C., for 30 minute. Determine the total OD of each of the six flasks, by multiplying the volume by OD/mL of each flask and divide by 15 OD to give the appropriate pellet resuspension volume. Discard supernatants and resuspend all pellets in the pre-chilled LB cryopreservant containing 30% glycerol and 0.4% sucrose, with a final volume as calculated above. Pool all resuspended pellets and mix gently, then aliquot into 1 mL/cryotube, and freeze at −70° C.
2. Preparing 10% hRBC Working Solution From Stock
Gently mix human red blood cells (hRBC) bottle (Rockland) by rocking ˜20×times, pipet out 10 mL of the hRBCs into a 15 ml conical tube. Centrifuge at 2,000 rpm(˜990×g) for 10 minutes and 4° C. Aspirate and discard the supernatant, then resuspend the pellet with 9 mL 4° C. PBS. The packed hRBCs in 15 mL conical tube should constitute roughly 1 mL of this total volume. Store these 10% hRBCs at 4° C. until use. […]
iv. PapG Hemagglutination Inhibition (HAI) Assay
The PapG hemagglutination inhibition (HAI) assay uses human red blood cells (hRBCs), which naturally express the PapG ligand GbO4 (globotetraosyl ceramide) on the cell surface, and the E. coli strain CFT073 expressing the fimbrial adhesin PapG. Upon mixing bacteria with hRBCs, […] cells remain suspended (presenting as a cloudy well), while no binding results in the red blood cells falling out of solution towards the center of the well (observed as pellet).
The total final well volume is 100 μL, with serum dilutions comprising 25 μL of this volume, strain CFT073 cells in […] volume, and hRBCs in a 50 μL volume. The assay plate is a V-bottom plate to which 25 μL 4° C. PBS is initially added to all wells. The positive control wells receive an additional 25 μL 4° C. PBS. The no-serum negative control consists of E. coli CFT073 cells plus hRBCs only (resulting agglutinated well appears cloudy). To accommodate pre-diluted sera transferred from the serum Master Dilution plate (MDP) an extra 5 μL 4° C. PBS is added to wells in Row A of the assay plate (columns 1 to 12). […]

Molecule	Step Titer GMT (HAI) (0.2 μg)	Step Titer Pool (HAI) (0.2 μg)	Step Titer GMT (HAI) (1 μg)	Step Titer Pool (HAI) (1 μg)	Step Titer GMT (HAI) (5 μg)	Step Titer Pool (HAI) (5 μg)
B1	50,054	54,000	69,595	27,000	141,214	81,000
B2	–	–	65,875	81,000	–	–

Reference: US20260061042A1, “POLYNUCLEOTIDE COMPOSITIONS AND USES THEREOF” (Pfizer Inc., priority 2024, published 2026)
